Test results: patent publication US7569579B2, “Cyclopropyl compounds as ccr5 antagonists” (SmithKline Beecham Corporation, priority 2002, dated 2009)

Target: T1, human CCR5 chemokine receptor (Homo sapiens, UniProt P51681)
T1 construct: host or cells: Chinese Hamster Ovary (CHO) cells; membranes prepared from the cell pellet
Assay: CC-Chemokine Receptor-5 binding by scintillation proximity assay (CCR5 SPA), displacement of 125I-MIP1α
Details: standard compound, 14-point concentration-response curve in triplicate
Protocol: CC-Chemokine Receptor-5 Binding by Scintillation Proximity Assay (CCR5 SPA) Scintillation Proximity Assay for the Human CC-Chemokine Receptor, CCR-5
This protocol describes a high-throughput screen using SPA binding to identify compounds that inhibit binding of ^125I-MIP1α to the human CCR5 chemokine receptor.
Human CCR5 receptors were expressed in Chinese Hamster Ovary (CHO) cells, registration # 12025. Cells were grown in suspension and a 50 to 80 ml CCR5 cell pellet was prepared. […]
The saturation curve binding experiment is performed by adding varying amounts of [^125I]MIP1α (0-8.5 nM to membranes and beads in concentrations chosen from the optimal protein/bead ratio. The data is analyzed using a non-linear curve-fitting program. The Kd and Bmax are derived from the curve. […]

T1 sequence (P51681 whole entry): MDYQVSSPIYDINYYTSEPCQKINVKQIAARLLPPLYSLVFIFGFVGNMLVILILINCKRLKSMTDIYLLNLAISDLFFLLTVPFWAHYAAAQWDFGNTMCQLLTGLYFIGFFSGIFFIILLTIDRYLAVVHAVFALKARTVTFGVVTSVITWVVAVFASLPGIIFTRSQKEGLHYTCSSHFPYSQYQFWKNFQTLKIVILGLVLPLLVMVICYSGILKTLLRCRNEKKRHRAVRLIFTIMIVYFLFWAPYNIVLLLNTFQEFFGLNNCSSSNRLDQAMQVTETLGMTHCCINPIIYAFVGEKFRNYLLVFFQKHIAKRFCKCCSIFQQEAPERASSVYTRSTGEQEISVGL

## MIP1α: standard compound of the CCR5 SPA; natural chemokine ligand of CCR5 (Peprotech)
  average historical pKi: 7.6
